Measurements reported in US20100112057A1 (published 2010).

What was measured:
[1] = target: T1, streptavidin (streptavidin-coated SA chip) (UniProt P22629 37-163, limits assumed); experiment: SPR, Biacore 3000, streptavidin-coated (SA) chip
T1 construct: Surface protein of the commercial SPR chip

[2] = target: the molecule itself; experiment: circular dichroism in PBS; concentration dependence of MRE at 222 nm fitted for the Kd of coiled-coil dimerization (unfolding/dissociation of the dimer)

T1 sequence (P22629 37-163 limits assumed): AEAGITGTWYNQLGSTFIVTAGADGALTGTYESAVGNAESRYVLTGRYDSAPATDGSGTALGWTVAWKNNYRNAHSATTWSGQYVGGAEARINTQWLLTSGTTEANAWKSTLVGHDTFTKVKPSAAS

B1: PF4ZIP (peptide)
peptide: CGGRMKQLEDKVKKLLKKNYHLENEVARLKKLVG
notes: Free peptide made by Fmoc solid phase synthesis on Rink Amide MBHA resin; The measurement is the self-association of two such chains into a coiled-coil dimer; also called PF4ZIP peptide
binding result [1]: no binding
Kd [2]: 3.48 µM
